According to patent publication US20210196806A1:

Target: CD8+ T cells among expanded tumor infiltrating lymphocytes (TIL) of a lung adenocarcinoma patient (H)
Assay: flow cytometry, tetramer staining of expanded TILs of one patient

In the case of “KRAS-G12V/HLA-A*11:01 tetramer (from UniProt P61769 21-119) (peptide-MHC)”, the percent of CD8+ T cells binding the tetramer is reported as over 66%.
